Assay results published in patent publication US20250026843A1 (ANHUI BIOX VISION BIOLOGICAL TECHNOLOGY, published 2025).

Tests used:
[1] = target: T1, P17-His fusion protein (extracellular domain of human CD40 with a His tag) (human, UniProt P25942 21-193); experiment: ELISA, P17-His coated on plate, anti-human Fc-HRP detection
T1 construct: range 21-193; not shown: His tag
Procedure: The obtained 4 bispecific antibodies were detected for affinity against the extracellular domain of human CD40 (Uniprot: positions 21 to 193 of P25942) through ELISA. The extracellular domain of human CD40 carried a His tag, also referred to herein as a P17-His fusion protein.
2 μg/mL of the P17-His fusion protein was coated onto a 96-well ELISA plate at 30 μL per well at 4° C. overnight. The next day, after encapsulating in 5% PBSM (PBS+5% Milk) at room temperature for 2 h, serially diluted (20 nM in the first well, 10-fold dilution in the second well, 3-fold dilution in the third to seventh wells, and 4-fold dilution in the seventh to eighth wells) anti-CD40×CLDN18.2 bispecific antibody, positive control APX005 (sequence derived from Apexigen Inc. US20120301488A1, prepared in the laboratory), or isotype IgG1 negative control were added. After culturing at room temperature for 1 h, washed 3 times with PBST (PBS+0.05% Tween-20), and then 30 μL of Goat-anti-human-Fc-HRP (abcam, ab97225) was added. After culturing at room temperature for 1 h, washed 3 times with PBST (PBS+0.05% Tween-20), and TMB colorimetric solution was added for color development for 5 to 30 min. After termination, OD450 was detected through a microplate reader (Beckman Coulter), and the results were analyzed and plotted through Graphpad 7.0 to evaluate the binding of the bispecific antibody to the P17-His fusion protein.

[2] = target: T2, human CLDN18.1 expressed on the cell surface of HEK293 cells (human, UniProt P56856 1-261); experiment: flow cytometry on 18.1-HEK293 cells
T2 construct: whole, on cells
T2 sequence (looked up): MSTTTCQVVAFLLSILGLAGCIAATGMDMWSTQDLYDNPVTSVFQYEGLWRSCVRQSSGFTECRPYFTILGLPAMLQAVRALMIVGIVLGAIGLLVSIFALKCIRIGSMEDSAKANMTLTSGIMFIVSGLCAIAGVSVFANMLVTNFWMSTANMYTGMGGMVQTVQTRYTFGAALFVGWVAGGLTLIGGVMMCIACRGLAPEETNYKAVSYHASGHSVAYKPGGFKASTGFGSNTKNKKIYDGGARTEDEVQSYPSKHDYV
Procedure: (§1) After culturing at 4° C. for 30 min, the cells were washed and added with 100 μL of 1:300 diluted PE-labeled Goat F(ab′)₂ Anti-human Fc (PE) and cultured at 4° C. for 30 min. The cells were then washed and the binding of the bispecific antibody to CLDN18.1 molecules expressed on the surface of HEK293 cells was detected through flow cytometry.

[3] = target: T3, human CLDN18.2 expressed on the cell surface of HEK293 cells (human, UniProt P56856-2 1-261); experiment: flow cytometry on 18.2-HEK293 cells
T3 construct: whole, on cells
T3 sequence (looked up): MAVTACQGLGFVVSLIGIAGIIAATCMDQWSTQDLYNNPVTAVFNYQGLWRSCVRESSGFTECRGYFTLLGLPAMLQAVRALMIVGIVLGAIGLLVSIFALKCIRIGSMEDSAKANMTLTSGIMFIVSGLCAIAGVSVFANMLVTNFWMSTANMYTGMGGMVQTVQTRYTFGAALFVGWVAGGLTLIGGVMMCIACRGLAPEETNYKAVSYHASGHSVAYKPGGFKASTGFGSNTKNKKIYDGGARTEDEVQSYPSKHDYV
Procedure: as §1, with “diluted” for “diluted PE-labeled”, “cultured” for “cultured at 4° C.”, “CLDN18.2” for “CLDN18.1 molecules”

T1 sequence (P25942 21-193 limits assumed): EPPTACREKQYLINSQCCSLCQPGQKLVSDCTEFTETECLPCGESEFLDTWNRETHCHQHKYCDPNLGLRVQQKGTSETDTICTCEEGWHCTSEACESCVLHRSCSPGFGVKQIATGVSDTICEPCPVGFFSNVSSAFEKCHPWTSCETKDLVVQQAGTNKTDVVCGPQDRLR

B1: APX005 (antibody, V domains shown)
VH: QVQLVESGGGVVQPGRSLRLSCAASGFSFSSTYVCWVRQAPGKGLEWIACIYTGDGTNYSASWAKGRFTISKDSSKNTVYLQMNSLRAEDTAVYFCARPDITYGFAINFWGPGTLVTVSS
VL: DIQMTQSPSSLSASVGDRVTIKCQASQSISSRLAWYQQKPGKPPKLLIYRASTLASGVPSRFSGSGSGTDFTLTISSLQPEDVATYYCQCTGYGISWPIGGGTKVEIK
[1]
  EC50: 0.0612 nM

B2: C8-WT-NA3S-HC (bispecific antibody, human IgG1, kappa, N297Q)
heavy: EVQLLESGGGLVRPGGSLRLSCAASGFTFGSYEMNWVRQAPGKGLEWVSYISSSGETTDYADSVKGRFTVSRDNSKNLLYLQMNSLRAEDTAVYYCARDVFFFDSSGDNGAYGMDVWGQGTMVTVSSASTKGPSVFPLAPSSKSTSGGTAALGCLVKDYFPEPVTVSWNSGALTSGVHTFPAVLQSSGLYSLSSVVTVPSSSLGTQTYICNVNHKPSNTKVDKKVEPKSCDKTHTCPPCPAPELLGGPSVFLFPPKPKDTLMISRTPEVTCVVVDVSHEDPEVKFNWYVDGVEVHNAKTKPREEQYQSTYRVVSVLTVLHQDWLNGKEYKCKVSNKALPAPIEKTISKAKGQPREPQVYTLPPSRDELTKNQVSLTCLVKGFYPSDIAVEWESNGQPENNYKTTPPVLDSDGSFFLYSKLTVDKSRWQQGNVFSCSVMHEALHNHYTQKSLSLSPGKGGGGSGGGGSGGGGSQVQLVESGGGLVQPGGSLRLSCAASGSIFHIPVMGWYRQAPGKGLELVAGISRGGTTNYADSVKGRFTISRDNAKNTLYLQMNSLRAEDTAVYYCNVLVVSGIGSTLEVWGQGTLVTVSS
light: DIQLTQSPSSLTASVGDRVTITCRSSQGIRSSLAWYQQKPGKPPKLLIYGASSLEGGVPSRFSGSGSGTDFTLTISSLQPEDFATYYCQQLNSFPSTFGQGTKLEIKRTVAAPSVFIFPPSDEQLKSGTASVVCLLNNFYPREAKVQWKVDNALQSGNSQESVTEQDSKDSTYSLSSTLTLSKADYEKHKVYACEVTHQGLSSPVTKSFNRGEC
notes: Fc is hIgG1 N297Q; also called anti-CD40×CLDN18.2 bispecific antibody; bispecific antibody of the present invention
[2]
  binding result: no binding (tested: 115.6 nM highest concentration tested)
[1]
  EC50: 0.11 nM
[3]
  binding result: binds

B3: C8-2-NA3S-HC (bispecific antibody, human IgG1, kappa, N297Q)
heavy: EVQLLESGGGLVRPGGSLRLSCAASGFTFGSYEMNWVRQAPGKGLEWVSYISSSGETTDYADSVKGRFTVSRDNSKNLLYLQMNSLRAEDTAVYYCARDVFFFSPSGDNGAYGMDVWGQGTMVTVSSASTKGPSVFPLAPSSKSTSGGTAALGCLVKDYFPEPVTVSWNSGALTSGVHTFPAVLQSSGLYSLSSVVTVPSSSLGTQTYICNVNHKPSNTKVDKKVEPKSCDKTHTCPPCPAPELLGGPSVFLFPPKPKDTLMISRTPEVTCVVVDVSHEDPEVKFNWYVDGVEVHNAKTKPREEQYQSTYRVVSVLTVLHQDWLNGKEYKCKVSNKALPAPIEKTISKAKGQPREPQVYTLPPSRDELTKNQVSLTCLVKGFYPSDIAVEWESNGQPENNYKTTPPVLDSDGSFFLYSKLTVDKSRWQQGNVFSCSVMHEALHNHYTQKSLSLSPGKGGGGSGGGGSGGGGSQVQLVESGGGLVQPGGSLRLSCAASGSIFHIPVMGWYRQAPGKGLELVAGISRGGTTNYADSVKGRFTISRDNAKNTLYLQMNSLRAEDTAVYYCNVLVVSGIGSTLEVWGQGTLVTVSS
light: DIQLTQSPSSLTASVGDRVTITCRSSQGIRSSLAWYQQKPGKPPKLLIYGASSLEGGVPSRFSGSGSGTDFTLTISSLQPEDFATYYCQQLNSFPSTFGQGTKLEIKRTVAAPSVFIFPPSDEQLKSGTASVVCLLNNFYPREAKVQWKVDNALQSGNSQESVTEQDSKDSTYSLSSTLTLSKADYEKHKVYACEVTHQGLSSPVTKSFNRGEC
notes: as for B2
[2]
  binding result: no binding (tested: 115.6 nM highest concentration tested)
[1]
  EC50: 0.127 nM
[3]
  binding result: binds

B4: C8-6-NA3S-HC (bispecific antibody, human IgG1, kappa, N297Q)
heavy: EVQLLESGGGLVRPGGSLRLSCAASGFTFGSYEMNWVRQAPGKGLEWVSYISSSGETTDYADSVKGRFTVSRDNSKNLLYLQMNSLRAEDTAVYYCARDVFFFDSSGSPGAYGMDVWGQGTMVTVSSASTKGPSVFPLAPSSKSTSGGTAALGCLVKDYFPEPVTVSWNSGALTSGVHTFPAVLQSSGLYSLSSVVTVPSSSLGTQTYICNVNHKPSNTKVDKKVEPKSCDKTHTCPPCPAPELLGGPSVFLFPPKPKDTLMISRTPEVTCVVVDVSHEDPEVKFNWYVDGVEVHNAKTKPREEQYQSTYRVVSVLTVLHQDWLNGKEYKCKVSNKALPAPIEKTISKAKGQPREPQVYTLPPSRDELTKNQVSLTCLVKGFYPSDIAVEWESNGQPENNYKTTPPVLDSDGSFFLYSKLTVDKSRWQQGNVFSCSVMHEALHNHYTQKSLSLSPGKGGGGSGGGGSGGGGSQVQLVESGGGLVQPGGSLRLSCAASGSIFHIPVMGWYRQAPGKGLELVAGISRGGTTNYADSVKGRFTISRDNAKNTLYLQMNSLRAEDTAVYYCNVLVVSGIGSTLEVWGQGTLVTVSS
light: DIQLTQSPSSLTASVGDRVTITCRSSQGIRSSLAWYQQKPGKPPKLLIYGASSLEGGVPSRFSGSGSGTDFTLTISSLQPEDFATYYCQQLNSFPSTFGQGTKLEIKRTVAAPSVFIFPPSDEQLKSGTASVVCLLNNFYPREAKVQWKVDNALQSGNSQESVTEQDSKDSTYSLSSTLTLSKADYEKHKVYACEVTHQGLSSPVTKSFNRGEC
notes: as for B2
[2]
  binding result: no binding (tested: 115.6 nM highest concentration tested)
[1]
  EC50: 0.102 nM
[3]
  binding result: binds

B5: C8-10-NA3S-HC (bispecific antibody, human IgG1, kappa, N297Q)
heavy: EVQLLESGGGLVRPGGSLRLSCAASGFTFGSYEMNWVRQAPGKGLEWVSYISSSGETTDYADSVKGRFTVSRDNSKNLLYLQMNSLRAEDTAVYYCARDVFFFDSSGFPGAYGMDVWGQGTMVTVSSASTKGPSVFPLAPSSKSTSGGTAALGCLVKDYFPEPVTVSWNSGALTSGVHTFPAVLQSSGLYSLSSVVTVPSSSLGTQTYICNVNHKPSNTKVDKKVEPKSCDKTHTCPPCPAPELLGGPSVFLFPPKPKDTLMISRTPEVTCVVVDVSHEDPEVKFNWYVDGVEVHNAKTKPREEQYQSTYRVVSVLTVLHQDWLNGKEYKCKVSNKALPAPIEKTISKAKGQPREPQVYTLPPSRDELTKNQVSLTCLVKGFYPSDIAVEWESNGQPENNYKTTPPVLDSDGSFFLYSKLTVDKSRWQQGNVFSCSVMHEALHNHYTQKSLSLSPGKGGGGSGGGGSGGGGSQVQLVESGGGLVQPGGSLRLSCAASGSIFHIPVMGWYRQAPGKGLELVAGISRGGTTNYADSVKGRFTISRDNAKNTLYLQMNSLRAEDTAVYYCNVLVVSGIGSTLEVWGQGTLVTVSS
light: DIQLTQSPSSLTASVGDRVTITCRSSQGIRSSLAWYQQKPGKPPKLLIYGASSLEGGVPSRFSGSGSGTDFTLTISSLQPEDFATYYCQQLNSFPSTFGQGTKLEIKRTVAAPSVFIFPPSDEQLKSGTASVVCLLNNFYPREAKVQWKVDNALQSGNSQESVTEQDSKDSTYSLSSTLTLSKADYEKHKVYACEVTHQGLSSPVTKSFNRGEC
notes: as for B2
[2]
  binding result: no binding (tested: 115.6 nM highest concentration tested)
[1]
  EC50: 0.104 nM
[3]
  binding result: binds
